This is an account of results in patent US20050085629A1, “Utilization of FPRL1 as a functional receptor by serum amyloid A (SAA)” (priority 1999, published 2005).

For experiment [1], the target named is T1, FPRL1 (Homo sapiens, UniProt P25090).
T1 sequence (P25090 1-351): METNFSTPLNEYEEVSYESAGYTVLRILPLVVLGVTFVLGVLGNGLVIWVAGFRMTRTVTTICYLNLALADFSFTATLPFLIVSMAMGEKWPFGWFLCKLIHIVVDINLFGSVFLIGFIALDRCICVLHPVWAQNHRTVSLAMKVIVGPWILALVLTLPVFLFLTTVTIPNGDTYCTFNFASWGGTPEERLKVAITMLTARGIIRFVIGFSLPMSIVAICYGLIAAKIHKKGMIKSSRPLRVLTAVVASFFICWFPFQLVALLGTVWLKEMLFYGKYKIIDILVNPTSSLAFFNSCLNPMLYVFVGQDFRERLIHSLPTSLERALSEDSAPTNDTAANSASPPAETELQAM
As to the kind of experiment: Chemotaxis of FPRL1/293 cells (48-well microchemotaxis chamber). The format is cell-based. The note with it: for agonist activity on FPRL1: concluded from chemotaxis experiments.

Experiment [2] concerns the target T1, FPRL1. As to the kind of experiment: 125I-SAA ligand binding to FPRL1/293 cells. As for the experimental part: (§1) rhSAA (20: g) was radio-iodinated on tyrosine and lysine residues with the chloramine T method and the specific activity of the labeled SAA was 5.8 mCi/mg (courtesy of J. Dobbs, SAIC Frederick, NCI-FCRDC, Frederick, Md.). A constant concentration of 16 nM ^125I-SAA was incubated for 20 min at 37° C. with human monocytes or 293 cells transfected with chemoattractant receptor cDNAs (1.5-2×10^6/sample, in 200: l RPMI1640, 1% BSA, 0.05% NaN3) in the presence of increasing concentrations of unlabeled SAA. After incubation, the cells were washed once with ice-cold PBS then were layered onto a 10% sucrose/PBS cushion in Eppendorf tubes. The cells were centrifuged at 10,000 g for 1 min and the tips of the tubes containing cell pellets were cut and measured for radioactivity in a γ-counter. The binding data were analyzed and plotted with a computer-aided program LIGAND (P. Munson, Division of Computer Research and Technology, NIH, Bethesda, Md.). The level of specific binding was determined by subtraction of non-specific binding (cpm on cells in the presence of 1: M unlabeled SAA) from the total binding (cpm on cells in the absence of unlabeled SAA). Experiments were performed at least 5 times which yielded similar results.

In experiment [3] the target is T1, FPRL1. The experiment can be described thus: Calcium mobilization (Fura-2) in FPRL1 transfected HEK 293 cells (FPRL1/293 cells). It is filed as cell-based.
The test system of experiment [4] is human monocytes. As to the kind of experiment: Cross-desensitization of Ca2+ mobilization in human monocytes (and neutrophils). It is filed as cell-based. For orientation: A change in cytosolic calcium serves as a functional read-out for many receptors and channels.
Experiment [5] concerns human monocytes. The experiment can be described thus: 125I-SAA ligand binding to human monocytes. The text has this:
GLPEKY. (SEQ. ID. No. 1). This rhSAA corresponds to SAA-1α, one of the major SAA isoforms in the serum, except for the addition of a methionine at the NH2 terminus as well as the substitution of aspartic acid for asparagine at position 60, which appears in the SAA2 isoform (reviewed in ref. Steinkasserer et al., Biochem. J., 268:187-193 (1990)). rhSAA at concentrations used in the study was negative for endotoxin as assessed by Limulus amebocyte lysate assays (sensitivity: 0.06 IU/ml. Bio Whittaker, Walkersville, Md.). High density lipoprotein (HDL) was purchased from Sigma (St. Louis, Mo.). […]
rhSAA (20: g) was radio-iodinated on tyrosine and lysine residues with the chloramine T method and the specific activity of the labeled SAA was 5.8 mCi/mg (courtesy of J. Dobbs, SAIC Frederick, NCI-FCRDC, Frederick, Md.). […] The cells were centrifuged at 10,000 g for 1 min and the tips of the tubes containing cell pellets were cut and measured for radioactivity in a γ-counter. The binding data were analyzed and plotted with a computer-aided program LIGAND (P. Munson, Division of Computer Research and Technology, NIH, Bethesda, Md.). The level of specific binding was determined by subtraction of non-specific binding (cpm on cells in the presence of 1: M unlabeled SAA) from the total binding (cpm on cells in the absence of unlabeled SAA). […]

Experiment [6] concerns the target T2, FPR (Homo sapiens, UniProt P21462).
T2 sequence (P21462 1-350): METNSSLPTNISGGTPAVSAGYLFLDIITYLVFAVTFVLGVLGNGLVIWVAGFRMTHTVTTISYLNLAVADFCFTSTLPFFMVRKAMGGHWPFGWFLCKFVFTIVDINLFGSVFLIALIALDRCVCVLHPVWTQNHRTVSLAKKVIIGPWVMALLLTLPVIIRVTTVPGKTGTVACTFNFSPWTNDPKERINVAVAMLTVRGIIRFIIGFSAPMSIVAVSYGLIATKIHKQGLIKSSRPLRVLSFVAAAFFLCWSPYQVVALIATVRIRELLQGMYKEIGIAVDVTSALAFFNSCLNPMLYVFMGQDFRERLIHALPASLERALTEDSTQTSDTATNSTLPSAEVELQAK
The experiment can be described thus: Radiolabeled SAA binding to cells transfected to express FPR. The arrangement: expressed in transfected cells. Particulars: cells transfected to express the receptor. As for the experimental part:
as §1

The next experiment relates to neutrophils. As to the kind of experiment: 125I-SAA ligand binding to neutrophils. The arrangement: species or system human.
In experiment [7] the target is human peripheral blood CD3+ T lymphocytes. The experiment can be described thus: 125I-SAA binding to human peripheral blood CD3+ T lymphocytes.
A further experiment deals with leukocyte. The note with it: from Badolato et al. 1994, Xu et al. 1995, Badolato et al. 1995; cited from earlier work.
Experiment [8] deals with T2, FPR. Particulars: FPR expressing 293 cells, FIG. 2C.
The target of experiment [9] is T2, FPR. The experiment can be described thus: Chemotaxis of FPR expressing ETFR cells (48-well microchemotaxis chamber). Particulars: FIG. 3B. The format is cell-based. On the set-up: expressed in transfected cells; host or cells: ETFR cells (rat basophil leukemia cell line), gift from Drs; H. Ali and R. Snyderman.
Where [10] appears, read: FPRL1/293 cells, commercially available LXA4 (Biomol).
Where [11] appears, read: FPRL1/293 cells pretreated with toxin.

Take `CCCCC[C@H](O)/C=C/C=C\C=C\C=C\[C@@H](O)[C@@H](O)CCCC(=O)O` [LXA4, lipoxin A4]: the induction of chemotaxis entry on FPRL1 [1] (setting [10]) was “did not detect a significant induction”. Also, the “inhibition of SAA binding” value on FPRL1 [2] (phagocytes or FPRL1/293 cells) is “nor did we observe inhibition”. Further, the “induction of Ca2+ flux” value at FPRL1 [3] (setting [10]) is reported as “did not detect a significant induction”.
Take `CSCC[C@H](NC=O)C(=O)N[C@@H](CC(C)C)C(=O)N[C@@H](Cc1ccccc1)C(=O)O` [fMLP, N-formyl-methionyl-leucyl-phenylalanine]: the “desensitization of SAA-induced Ca2+ mobilization” value is listed as “completely desensitized” in the experiment with human monocytes [4] (fMLP 10^-3 M = 1 mM, monocytes, FIG. 1C) and “partial desensitizing effect” in the experiment on human monocytes [4] (fMLP at 100 nM, monocytes, FIG. 1B). The “attenuation of subsequent cell response (Ca2+) to SAA” value in the experiment on human monocytes [4] (fMLP at relatively high concentrations (10: M and more), monocytes and neutrophils) is given as “able to attenuate a subsequent cell response to SAA”. The “cell migration in response to stimulant” value at FPRL1 [1] (FPRL1/293 cells, wide range of concentrations, FIG. 3A) is “failed to migrate”. Also, the “agonist activity on FPRL1” value on FPRL1 [1] was “partial agonist”. Also, the “competition with 125I-SAA for binding” value is reported as “only partially competed” on FPRL1 [2] (unlabeled fMLP at high concentrations (≧10: M), FPRL1/293 cells, FIG. 4D) and “only partially competed” in the experiment with human monocytes [5] (unlabeled fMLP at high concentrations (≧10: M), FIG. 4C). Further, at FPRL1 [3] (FPRL1/293 cells, sequential stimulation, fMLP at 100 fold excess of SAA), the “desensitization of Ca2+ flux response to SAA by prior fMLP” value is listed as “only partially desensitized”.
For the molecule pertussis toxin, the “effect of cell pretreatment on SAA induced chemotaxis” value with FPRL1 [1] (setting [11]) was “inhibited”. In addition, the “effect of cell pretreatment on SAA induced Ca2+ mobilization” value with FPRL1 [3] (setting [11]) is “inhibited”.

B1: ^125I-SAA: rhSAA radio-iodinated on tyrosine and lysine residues with the chloramine T method (protein)
chain: MRSFFSFLGEAFDGARDMWRAYSDMREANYIGSDKYFHARGNYDAAKRGPGGVWAAEAISNARENIQRFFGRGAEDSLADQAANEWGRSGKDPNHFRPAGLPEKY
Turning to B1, in the experiment with FPR [6], the “binding to FPR receptor” value is “not the FPR receptor”. The Kd (as a rule, the concentration at which binding is half-saturated) was 45 nM in the experiment on neutrophils and 300 nM in [7]. This molecule also came in with a binding sites/cell with FPRL1 [2] (FPRL1/293 cells, FIG. 4A) of 42000 binding sites/cell. In addition, the specific binding entry in the experiment on human monocytes [5] (FIG. 4B) is recorded as “specifically bound”.

B2: serum amyloid A (protein, listed as Homo Sapiens)
chain: MRSFFSFLGEAFDGARDMWRAYSDMREANYIGSDKYFHARGNYDAAKRGPGGVWAAEAISNARENIQRFFGRGAEDSLADQAANEWGRSGKDPNHFRPAGLPEKY
modifications: N-terminal methionine
notes: Recombinant human SAA from Pepro Tech; corresponds to SAA-1α with added NH2-terminal methionine and aspartic acid for asparagine at position 60
For the molecule B2, the “optimal concentrations to induce leukocyte migration, adhesion and tissue infiltration” value in the experiment with leukocyte was 0.8-4 : M. Besides, in the experiment on human monocytes [4] (SAA at 1: M, monocytes or neutrophils), the “desensitization of Ca2+ flux induced by chemokines (MCP-1, RANTES, MCP-3, MIP-1, IL-8, SDF-1)” value is “failked to desensitize”. Besides, in the experiment on human monocytes [4] (fMLP used at 100 nM, monocytes, FIG. 1A), the “attenuation of cell response (Ca2+) to fMLP” value is “did not attenuate the cell response”. Besides, the “induction of Ca2+ mobilization” value in the experiment with FPR [8] is reported as “not in FPR expressing cells”. Besides, the EC50 (in general, the midpoint of the concentration-response curve) with FPRL1 [1] (FPRL1/293 cells, read-out: EC50 of migratory response (chemotaxis)) was 200 nM; with FPRL1 [3] (FPRL1 transfected cells (FPRL1/293 cells), FIG. 2B, read-out: EC50 for Ca2+ mobilization), 250 nM. In addition, the “agonist activity on FPRL1” value with FPRL1 [1] is given as “full agonist activity”. Besides, the “cell migration in response to stimulant” value with FPR [9] is given as “did not migrate”. In the experiment with FPRL1 [3] (FPRL1/293 cells, sequential stimulation, 100 fold excess of fMLP), the “desensitization of Ca2+ flux response to fMLP by prior SAA” value was “able to desensitize the cell response to a 100 fold excess of fMLP”.
